The results in this text go back to publication PMC10440015.

For assay [1], the target named is FFNFFKG-Toyopearl resin. Description: affinity chromatography.
The target of the next assay is …-Toyopearl resin. Description: affinity chromatography.
The target in the next assay is KWWIWAG-Toyopearl resin. Description: affinity chromatography.
The target of another assay is FNHFFIG-Toyopearl resin. Description: affinity chromatography.
Another assay concerns the target GYISRHPG-Toyopearl resin. Description: affinity chromatography.
The target in the next assay is WWIKISG-Toyopearl resin. Description: affinity chromatography.
Another assay addresses WKAHNKG-Toyopearl resin. Description: affinity chromatography.
The target of assay [2] is the peptide-based adsorbents. Description: affinity chromatography.
Assay [3] has as its target KFNHWFG-Toyopearl resin. Description: affinity chromatography.
The target in assay [4] is KFNHWFG-Toyopearl resin. Description: batch adsorption isotherm.
Assay [5] deals with FFNFFKG-Toyopearl resin. Description: breakthrough chromatography.
The target in assay [6] is KFNHWFG-Toyopearl resin. Description: breakthrough chromatography.

Values joined by “and” are separate entries in the source; they are usually repeats but may differ in a detail not shown here. Equal entries are not always repeated. Where only a bound is given, the exact number is not on record here.

“Adeno-associated virus serotype 9 capsid (complex)”: the yield (AAV titer in elution fraction vs. load) with FFNFFKG-Toyopearl resin [1] is 72.4%; with …-Toyopearl resin it was 61.7% and 43.9% and 53.7%; with KWWIWAG-Toyopearl resin, 57.2%.
For the substance “Adeno-associated virus serotype 2 capsid (complex)”, the loss (AAV titer in flow-through and wash vs. load) in the assay with FFNFFKG-Toyopearl resin [1], with …-Toyopearl resin, with FNHFFIG-Toyopearl resin, with GYISRHPG-Toyopearl resin, in the assay with WWIKISG-Toyopearl resin and in the assay with WKAHNKG-Toyopearl resin was below 1.7% each time. In addition, the values for the loss (AAV titer in flow-through and wash vs. load) (in the assay with KWWIWAG-Toyopearl resin; in [2]; with KFNHWFG-Toyopearl resin [3]) were below 1.7%, 1 to 4% and below 1.7%, respectively. Moreover, the yield (AAV titer in elution fraction vs. load) is 54.9% and 44.8% with …-Toyopearl resin; 79.8% with WKAHNKG-Toyopearl resin; 40 to 65% in assay [2]; 45% with KFNHWFG-Toyopearl resin [3]. The Kd with KFNHWFG-Toyopearl resin [4] was found to be 0.16 pM. Besides, the DBC10% (dynamic binding capacity at 10% breakthrough) (vp AAV per mL of resin) in the assay with FFNFFKG-Toyopearl resin [5] worked out at 1.4e+13; with KFNHWFG-Toyopearl resin [6], 1.33e+13.

Broadly, the Kd is the equilibrium constant for the complex coming apart. A lower Kd goes with tighter binding.
